According to US10562969B2, “Substitution monotherapy treatment for HIV-1 infection employing antibody PRO140” (CYTODYN INC., priority 2014, dated 2020):
Several values for one entry are separate records, joined by “and”; a condition that tells them apart may be missing. Equal values may be shown once. Read-outs that look alike come from different tables or passages of the source. Marks after values point to notes of the source that are not given here.

How the values were obtained:
HIV-1 [1] = conditions: dose-dependent; treatment period of 10-14 days; cited from earlier work
[2] = in vivo; cited from earlier work
[3] = single administration of solution, oral, healthy male volunteers; cited from earlier work
HIV-1 [4] = test: Second Phase 2b extension treatment substitution study, PRO 140 monotherapy; assay type: in vivo, human
Procedure: As with the first TS study, only subjects with exclusive CCR5-tropic virus were to be enrolled. However, 6 out of 16 subjects were determined to have dual- or mixed-tropic (D/M) virus when screening blood samples were tested by HIV-1 Co-receptor Tropism by Proviral DNA method or Ultradeep Sequencing with Reflex (Quest Diagnostics), as a retrospective exploratory analysis.

CCR5 [5] = target: T1, CCR5 (Homo sapiens, UniProt P51681); conditions: cited from earlier work
T1 sequence (P51681 whole entry): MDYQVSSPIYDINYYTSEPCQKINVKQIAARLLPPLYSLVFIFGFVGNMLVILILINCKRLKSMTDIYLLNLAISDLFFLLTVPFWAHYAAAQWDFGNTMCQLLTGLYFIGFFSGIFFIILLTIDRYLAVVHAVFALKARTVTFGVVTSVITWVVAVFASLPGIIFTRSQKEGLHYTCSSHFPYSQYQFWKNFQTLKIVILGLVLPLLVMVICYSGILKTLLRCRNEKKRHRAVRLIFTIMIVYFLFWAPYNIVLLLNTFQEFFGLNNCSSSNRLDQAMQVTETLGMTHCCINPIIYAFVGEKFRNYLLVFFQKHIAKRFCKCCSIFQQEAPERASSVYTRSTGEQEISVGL

HIV-1 [6] = conditions: repeated administration; cited from earlier work
CCR5 [7] = target: T1, CCR5; set-up: endogenous in cells; conditions: for 29 days after treatment with both 5 and 10 mg/kg doses; cited from earlier work
[8] = cited from earlier work
HIV-1 [9] = conditions: antiviral; cited from earlier work
HIV-1 [10] = tested on: HIV-1
Procedure: All potential study patients were screened and for entry and must be HIV positive with the type of virus, ‘R5’, that uses the coreceptor CCR5 for cell entry and infection.
The first phase 2b TS study, also noted above, was conducted based on the following protocol. The TS study was for the Human Immunodeficiency Virus Type-1 (HIV-1) Infection indication. The TS study involved forty patients, was 14 weeks long, and patients' viral loads were checked weekly. Patients enrolled in the study had undetectable viral load at day one of the study (viral load<50). […] Failure of a patient under study was determined to occur if their viral load (VL) was measured at >400 two times.
Patient enrollment was staggered in this study to facilitate adequate safety monitoring. A lead cohort included 12 subjects. Enrollment of additional 28 subjects was initiated after approval by the independent DSMB.
Subjects who met all eligibility criteria, as per data gathered from Screening Visit were eligible for treatment. […] The first treatment visit took place within 42 days of the screening visit. Eligible subjects received up to 14 treatments, given every week (±3 days) or until virologic failure, whichever occurred first. Visits during the treatment phase commenced on T1, i.e. the date of first treatment, with weekly visits (±3 days) thereafter.
Subjects who experienced virologic failure (defined as two consecutive HIV-1 RNA levels of ≥400 copies/ml separated by at least 3 days) at any time during the treatment phase underwent the virologic failure (VF) visit assessments and then exited the Treatment Phase to enter the follow-up phase of the study.
Subjects who experienced VF were followed up every 4 weeks until the viral suppression was achieved (i.e., plasma HIV-1 RNA levels to return back to <50 copies/mL).
Efficacy Analysis. The main analysis of primary and secondary endpoint will be conducted on the PP population and ITT population will be used for supportive analysis. […] VF is defined as two consecutive HIV-1 RNA levels of ≥400 copies/ml separated by at least 3 days. […] The statistical comparison will be conducted using Wilcoxon rank sum test and the median time to VF for this study will be compared to 30 days.

HIV-1 [11] = conditions: based on pharmacodynamic data from prior SC and IV studies
Procedure: The maximal change in HIV-1 viral load from baseline was determined at any point 59 days after initiation of therapy. To allow approximate comparisons between the IV and SC doses, the overall AUC observed for repeat SC doses was conservatively estimated by multiplying the measured AUC0-7d by the number of doses administered. Viral load and AUC data were fit to an Emax equation: E=Emax×AUC/(AUC+AUC50).

[12] = cited from earlier work; for mean change in CD4+ cell counts from baseline: 5 mg/kg IV
R5 HIV-1 [13] = conditions: cited from earlier work
HIV-1 [14] = conditions: cited from earlier work
[15] = First Phase 2b treatment substitution study, CD4 cell count and safety; conditions: for CD4 cell count: individual subjects
Source text: Efficacy assessments at each week included assessment of viral load and CD4 cells count. Safety assessments consisted of physical exam, lab, and adverse event assessments at each treatment and follow-up visit.
The Per Protocol (PP) population was defined as the set of subjects who meet the ITT population requirements, and were not associated with a major protocol violation. This population was identified before the database lock. The PP population will be the primary analysis population for the analysis of primary and secondary endpoints. […] This population will be used for the analysis of safety parameters.

HIV-1 [16] = conditions: cited from earlier work; remark: listed apart in the source
[17] = cited from earlier work; remark: listed apart in the source
HIV-1 [18] = conditions: cited from earlier work; remark: listed apart in the source
[19] = in vivo
R5 HIV-1 [20] = conditions: cited from earlier work; remark: listed apart in the source
[21] = target: CCR5 on circulating lymphocytes (Homo sapiens, UniProt P51681); conditions: single IV injection; cited from earlier work
Sequence of CCR5 on circulating lymphocytes (P51681 whole entry): as above

[22] = subjects treated with SC PRO 140; cited from earlier work
[23] = interim, first cohort of 12 patients

Molecule: CCCCN1C(=O)[C@@H]([C@H](O)C2CCCCC2)NC(=O)C12CCN(Cc1ccc(Oc3ccc(C(=O)O)cc3)cc1)CC2 [GW873140]
- mean reductions in HIV-1 RNA levels (HIV-1 [1]): about 1 log10

Molecule: CCO/N=C(\c1ccc(Br)cc1)C1CCN(C2(C)CCN(C(=O)c3c(C)cc[n+]([O-])c3C)CC2)CC1 [SCH-C]
- mean reductions in HIV-1 RNA levels (HIV-1 [1]): about 1 log10

Molecule: COC[C@@H](c1ccc(C(F)(F)F)cc1)N1CCN(C2(C)CCN(C(=O)c3c(C)ncnc3C)CC2)C[C@@H]1C [SCH-D]
- clinically significant changes in QTc intervals [2]: none of the above-identified agents induced clinically significant changes in QTc intervals
- mean reductions in HIV-1 RNA levels (HIV-1 [1]): about 1 log10

Molecule: CCCCOCCOc1ccc(-c2ccc3c(c2)/C=C(/C(=O)Nc2ccc([S@@+]([O-])Cc4cncn4CCC)cc2)CCCN3CC(C)C)cc1 [TAK-652]
- safety, tolerability [3]: safe and well tolerated

Molecule: Cc1nnc(C(C)C)n1[C@H]1C[C@H]2CC[C@@H](C1)N2CC[C@H](NC(=O)C1CCC(F)(F)CC1)c1ccccc1 [UK-427,857]
- clinically significant changes in QTc intervals [2]: none of the above-identified agents induced clinically significant changes in QTc intervals
- mean reductions in HIV-1 RNA levels (HIV-1 [1]): about 1 log10

B1: PRO 140: humanized IgG4,κ monoclonal antibody (mAb) to the C-C chemokine receptor type 5 (CCR5) (antibody, chains of the INN, looked up, V domains shown)
VH: EVQLVESGGGLVKPGGSLRLSCAASGYTFSNYWIGWVRQAPGKGLEWIGDIYPGGNYIRNNEKFKDKTTLSADTSKNTAYLQMNSLKTEDTAVYYCGSSFGSNYVFAWFTYWGQGTLVTVSS
VL: DIVMTQSPLSLPVTPGEPASISCRSSQRLLSSYGHTYLHWYLQKPGQSPQLLIYEVSNRFSGVPDRFSGSGSGTDFTLKISRVEAEDVGVYYCSQSTHVPLTFGQGTKVEIK
- Proportion of Subjects with Virologic Failure within 24 weeks of PRO 140 Monotherapy (HIV-1 [4]; Total (N = 16)): 4/16
- subjects experiencing virologic failure in the Extension study (HIV-1 [4]; four out of 16 subjects): 25%
- Time on PRO 140 Monotherapy (HIV-1 [4]; individual subjects, interim, includes duration from PRO 140 Substitution study): 27 # of weeks (3×) and 28 # of weeks (2×) and 31 # of weeks and 22 # of weeks (5×) and 24 # of weeks and 29 # of weeks and 26 # of weeks
- subjects with more than 20 weeks of PRO 140 monotherapy (HIV-1 [4]; interim, first TS study plus Extension): 10 out of 16 subjects and 14 out of 16 subjects
- duration of complete viral-load suppression (HIV-1 [4]; ongoing extension study): ~11 months
- Block Natural Activity of CCR5 (CCR5 [5]): No
- control of HIV-1 replication (HIV-1 [6]): prolonged control of HIV-1 replication without viral escape
- receptor occupancy (reduction in the number of cells detected) (CCR5 [7]): > 85%
- Tolerability ([8]; in vivo): No Toxicity
- time serum concentrations are maintained above the IC50 for clinical isolates of HIV-1 ([8]; single dose of 324 mg): at least 2 weeks
- IC90 (HIV-1 [9]): about 4 μg/ml
- enrolled subjects who completed 12 weeks of PRO 140 Monotherapy without experiencing virologic failure (HIV-1 [10]; 22 out of 40 enrolled subjects): 55%
- Proportion of Subjects with Virologic Failure within 4 weeks of PRO 140 Monotherapy (HIV-1 [10]; CCR5 (N = 24)): 1/24
- Proportion of Subjects with Virologic Failure within 12 weeks of PRO 140 Monotherapy (HIV-1 [10]; CCR5 (N = 24)): 8/24
- Virologic Failure anytime during Treatment Phase (HIV-1 [10]; CCR5- plus Dual/Mixed-tropic Population N = 40): 18 n
- Proportion of Subjects with Virologic Failure within 12 weeks of PRO 140 Monotherapy (HIV-1 [10]; Total (N = 40)): 18/40
- Proportion of Subjects with Virologic Failure within 4 weeks of PRO 140 Monotherapy (HIV-1 [10]; Total (N = 40), 350 mg SC weekly): 1/40
- Virologic Failure (HIV-1 [10]; individual subjects reported as Dual/Mixed): YES
- patients who experienced virologic failure after 11 weeks of monotherapy (HIV-1 [10]; [23]): 7 patients
- patients who had not experienced virologic failure after 10 weeks of monotherapy (HIV-1 [10]; [23]): five
- patients who passed four weeks of monotherapy (no virologic failure) (HIV-1 [10]; [23]): 100%
- patients with viral load suppression after 8 weeks of monotherapy (HIV-1 [10]; interim, first cohort, excluding two dual-mix virus patients (six of ten)): 60%
- virologic failure subjects who achieved viral suppression to <400 and to 'Non Detectable' or <50 HIV-1 RNA copies/ml (HIV-1 [10]; once ART reinitiated, seventeen of eighteen subjects): 94.4%
- trough concentrations at which maximum virologic suppression is expected (HIV-1 [11]): ≥ 5 μg/mL
- mean change in CD4+ cell counts from baseline ([12]; day 8): +129 cells/μL
- mean change in CD4+ cell counts from baseline ([12]; day 15): +96 cells/μL
- mean change in CD4+ cell counts from baseline ([12]; day 22): +83 cells/μL
- effect on QTc interval or other electrocardiographic parameters ([12]; in vivo, iv): no significant effect
- time mean viral load reductions of greater than 1 login were sustained post-treatment (R5 HIV-1 [13]; 5 mg/kg IV group): 2-3 weeks
- development of viral resistance to PRO 140 (R5 HIV-1 [13]; after single IV dose, followed 58 days): no significant development of viral resistance to PRO 140 was observed
- viral load reduction on average (R5 HIV-1 [13]; single 5 mg/kg IV dose): 1.83 login
- Development of Resistance in Vitro (HIV-1 [14]): None at 40 weeks
- Viral Cross-Resistance (HIV-1 [14]): Limited
- subjects reporting 'general disorders and administration site conditions' AEs ([15]; 13 of 40 subjects): 32.5%
- subjects reporting 'infections and infestations' AEs ([15]; 14 of 40 subjects): 35%
- reported AEs deemed either unlikely or not related to study treatment ([15]; 63/89 AEs): 70.7%
- reported AEs deemed mild in nature ([15]; 72/89 AEs): 80.8%
- subjects who experienced one or more adverse events ([15]; after at least one dose of PRO 140): 28 of 40 subjects
- subjects who experienced an SAE ([15]; deemed not related to the study drug): 1 of 40 subjects
- CD4 cell count ([15]; visit T3): 585 /mm^3 and 1043 /mm^3 and 760 /mm^3 and 962 /mm^3 and 667 /mm^3 and 755 /mm^3 and 1299 /mm^3 and 677 /mm^3 and 497 /mm^3 and 443 /mm^3 and 625 /mm^3 and 554 /mm^3 and 901 /mm^3 and 858 /mm^3 and 513 /mm^3
- CD4 cell count ([15]; visit T5): 585 /mm^3 and 465 /mm^3 and 356 /mm^3 and 994 /mm^3 and 704 /mm^3 and 831 /mm^3 and 642 /mm^3 and 509 /mm^3 and 514 /mm^3 and 859 /mm^3 and 665 /mm^3 and 785 /mm^3 and 646 /mm^3
- CD4 cell counts throughout the Treatment Phase ([15]; overall review, 40 subjects): maintained at stable levels
- drops in plasma HIV-1 RNA levels (HIV-1 [16]; repetitive weekly administration of 324 mg SC): approximately 1.5 log10
- drops in plasma HIV-1 RNA levels (HIV-1 [16]; single subcutaneous doses of 324 mg): approximately 1.0 log10
- mean AUC from time zero to infinity (AUC∞) ([17]; 5 mg/kg single IV, serum): 278 mg·days/L
- mean AUC from time zero to infinity (AUC∞) ([17]; in vivo, iv, 0.5 mg/kg): 11.1 mg·days/L
- mean serum half-life ([17]; in vivo, iv, 5 mg/kg): 84 h
- mean nadir reduction in viral load (HIV-1 [18]; single 5 mg/kg IV dose): 1.8 log10
- mean nadir reduction in viral load (HIV-1 [18]; single 10 mg/kg IV dose): 1.8 log10
- reduction in viral loads, all PRO 140-treated subjects (HIV-1 [18]; single IV infusion 5 or 10 mg/kg): more than 10 fold
- mean max log10 reductions in viral load (HIV-1 [18]; treatment groups (5 and 10 mg/kg IV)): 1.83 log10
- PK profile [19]: favorable PK profile similar to that seen in prior clinical studies
- PK samples, difference between subjects with and without virologic failure [19]: no significant difference observed
- persistence of antiviral effects after the final dose (R5 HIV-1 [20]; 324 mg SC doses): one week
- mean nadir reduction in viral load (R5 HIV-1 [20]; 324 mg SC weekly for three weeks): 1.65 log10
- duration of significant masking of CCR5 on circulating lymphocytes [21]: 2-4 weeks
- CD4+ cell counts [22]: trend towards increased CD4+ cell counts
